These results are taken from US20150004190A1.

Experiment [1] concerns the target Peptide ELDKWA (HIV-1). Briefly: ELISA on coated peptide. On the technique in general: An ELISA detects its analyte on a solid surface through an enzyme-linked reagent.
Experiment [2] deals with Peptide ELDKWA (HIV-1). Briefly: ELISA on coated peptide (FIG. 1).
The target in experiment [3] is Peptide ELDKWA (HIV-1). Briefly: competitive ELISA, competitor 0.027 nM 2F5 IgA2 detected with anti-human IgA.

A value given as a limit tells only on which side of the number the result lay.

B1: 2F5 IgA2 (antibody, V domains shown)
VH: RITLKESGPPLVKPTQTLTLTCSFSGFSLSDFGVGVGWIRQPPGKALEWLAIIYSDDDKRYSPSLNTRLTITKDTSKNQVVLVMTRVSPVDTATYFCAHRRGPTTLFGVPIARGPVNAMDVWGQGITVTI
VL: ALQLTQSPSSLSASVGDRITITCRASQGVTSALAWYRQKPGSPPQLLIYDASSLESGVPSRFSGSGSGTEFTLTISTLRPEDFATYYCQQLHFYPHTFGGGTRVDVR
For the molecule B1, the fold higher efficacy as compared to IgG1 in the experiment with Peptide ELDKWA (HIV-1) [1] was > 100 fold. Besides, in the experiment with Peptide ELDKWA (HIV-1) [2], the antibody concentration of equivalent binding activity is 0.05 nM.

B2: 2F5 IgG1 (antibody, V domains shown)
VH: RITLKESGPPLVKPTQTLTLTCSFSGFSLSDFGVGVGWIRQPPGKALEWLAIIYSDDDKRYSPSLNTRLTITKDTSKNQVVLVMTRVSPVDTATYFCAHRRGPTTLFGVPIARGPVNAMDVWGQGITVTI
VL: ALQLTQSPSSLSASVGDRITITCRASQGVTSALAWYRQKPGSPPQLLIYDASSLESGVPSRFSGSGSGTEFTLTISTLRPEDFATYYCQQLHFYPHTFGGGTRVDVR
Consider B2, for which the concentration needed to compete with Peptide ELDKWA (HIV-1) [3] stood at 25 nM. Besides, in the experiment with Peptide ELDKWA (HIV-1) [2], the antibody concentration of equivalent binding activity is 6.25 nM.
